The values that follow are results of earlier work, collected in PMC4041481.

For this series, the target named is His37 (UniProt position 37, IIGILHLILWI). The note with it: M2 tetramer assembled in a lipid bilayer.

As for “Matrix protein 2 (M2 proton channel) (Influenza A virus (strain not stated))”, the pKa is recorded as less than 5.0.
